For 4 molecules, Kd and relative band intensity results are on record in article PMC4141210 (FEBS Open Bio, 2014).

B1: His–M1 (influenza virus M1 protein, wild type) (natural protein)
chain: MSLLTEVETYVLSIIPSGPLKAEIAQRLEDVFAGKNTDLEVLMEWLKTRPILSPLTKGILGFVFTLTVPSERGLQRRRFVQNALNGNGDPNNMDKAVKLYRKLKREITFHGAKEISLSYSAGALASCMGLIYNRMGAVTTEVAFGLVCATCEQIADSQHRSHRQMVTTTNPLIRHENRMVLASTTAKAMEQMAGSSEQAAEAMEVASQARQMVQAMRTIGTHPSSSAGLKNDLLENLQAYQKRMGVQMQRFK
B2: GST–Hsc70 N402 (1–402 aa) (domain or fragment)
chain: not shown
B3: GST–NS2 (natural protein)
chain: MDPNTVSSFQDILLRMSKMQLESSSGDLNGMITQFESLKLYRDSLGEAVMRMGDLHSLQNRNEKWREQLGQKFEEIRWLIEEVRHKLKITENSFEQITFMQALHLLLEVEQEIRTFSFQLI
B4: GST–Hsc70 N384 (1–384 aa) (domain or fragment)
chain: not shown

Assay [1] concerns the target GST–Hsc70 wild-type (1–646 aa) (UniProt P11142 1-646). In words: pull-down.
Assay [2] has as its target B1. Description: far-Western, overlay or dot blot.
The target of assay [3] is B1. Description: pull-down.

Sequence of GST–Hsc70 wild-type (1–646 aa) (P11142 whole entry, the tested form may be a part): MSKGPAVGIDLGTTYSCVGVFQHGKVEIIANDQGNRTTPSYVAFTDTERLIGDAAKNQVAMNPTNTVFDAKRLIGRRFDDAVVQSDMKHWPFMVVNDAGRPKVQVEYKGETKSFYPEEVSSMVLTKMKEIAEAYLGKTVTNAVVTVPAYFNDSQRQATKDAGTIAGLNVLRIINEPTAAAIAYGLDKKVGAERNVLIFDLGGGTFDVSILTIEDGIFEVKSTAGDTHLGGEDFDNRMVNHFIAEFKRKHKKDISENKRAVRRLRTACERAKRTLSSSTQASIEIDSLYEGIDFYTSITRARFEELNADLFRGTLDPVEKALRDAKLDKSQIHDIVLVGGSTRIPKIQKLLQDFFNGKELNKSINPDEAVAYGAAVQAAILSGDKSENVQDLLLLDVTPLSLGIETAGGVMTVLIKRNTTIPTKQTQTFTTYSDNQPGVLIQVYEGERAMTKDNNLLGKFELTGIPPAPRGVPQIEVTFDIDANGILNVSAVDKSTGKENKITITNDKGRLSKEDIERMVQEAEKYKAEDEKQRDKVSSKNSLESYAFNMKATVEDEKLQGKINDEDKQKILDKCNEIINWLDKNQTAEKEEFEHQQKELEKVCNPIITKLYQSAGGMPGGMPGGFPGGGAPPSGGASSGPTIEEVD

On to B1, for which the Kd in assay [1] was 0.1 µM. For the molecule B2, in assay [2], the relative band intensity was 0.71 relative (wild type = 1).

Molecule B3 came in with a Kd in assay [3] of 6 µM. In the case of B4, in assay [2], the relative band intensity was 0.26 relative (wild type = 1).
